{
  "source": "the nanobody polyreactivity screen of Harvey et al. (2022)",
  "data": [
    {"experiment": "yeast display, Sf9 membrane polyspecificity reagent, FACS + sequencing; frameworks hold sequencing errors", "method_in_brief": "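Synthetic nanobody libraries on Saccharomyces cerevisiae BJ5465 were galactose-induced for 36–48 hours, stained 1 hour at 4 °C with 10% biotinylated, detergent-solubilized Sf9 membrane reagent and enriched on streptavidin microbeads. FACS then separated cells into low and high (top ~1%) gates by anti-HA (expression) and streptavidin (reagent binding) fluorescence. Genes were colony-PCR amplified, MiSeq 2 × 250 sequenced and CDR-length filtered. A clone's polyreactivity label is that of its gate of origin.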", "values": [
      {"sequence": "QVQLEESGGGLLQAGGSLRLSCAASGSTFLRNAKGWYRQAPGKERELVATITISGGSTHYADSVKGRFTISRDNAKNTVYLPMNSLKPEDTAVYYCGTPRYPSYDYWGQGTQVTVSS", "polyreactivity (PSR sort gate)": "low polyreactivity"},
      {"sequence": "QVQLEESGGGLVKARGSLRITCAASGSTFDYYTMGWYRQAPGKERELFAAINSSGGRTYYADSVKGRFTISRDTAKNTVYLQMNSLIPEDTAVYDCAAVTLCLGRYPYTYTSRYEYWGLGTQVTVSS", "polyreactivity (PSR sort gate)": "high polyreactivity"},
      {"sequence": "QVQLEESGGGLVQAGASLRLSCAASGRTFPRYAMGWSRQAPGKERELVAAITSSGGSTNYADSVKGRFTISRENATNSVYLQMYSLKPEDTAVYYCNARFPTQYILWSSSPYGYWGQGTQVTVSS", "polyreactivity (PSR sort gate)": "low polyreactivity"},
      {"sequence": "QVQLEESGGGLVQAGCSLRLSCAASGRIFHFYAIGRYRQAPGKERELVAVINGGGSTYYADSVKGRFTISRDNAKNTVYLQMNSLKPEVTAVYYCAADVYLSRYEKYGYWGQGTQVTVSS", "polyreactivity (PSR sort gate)": "high polyreactivity"},
      {"sequence": "QVQLEESGGGLVQAGGIRRLSCAASGRIFPYYAMGWYRLAPGKERELVAAISLSGGSTYYADSVKGRFTISRDTAKMSGYLQMTSLKPEDTAVYYGNAVASTSGYYWYPGLGYDYCGQGTQVTVSS", "polyreactivity (PSR sort gate)": "low polyreactivity"},
      {"sequence": "QVQLEESGGGLVQAGGRLRLSCAASGGNFNYYPMGWYREAPGKERELVAAITRGGSTYYADSVKGRFTISRDNAKNTVYLQMNSLKPEDTAVYYCAAGWRRYDKSPLEGSWGQGTQVTLSS", "polyreactivity (PSR sort gate)": "high polyreactivity"},
      {"sequence": "QVQLEESGGGLVQAGGRLRLSCAASGIIFGYYAIGWYRQAPGKERELVAAISSGGTTSYADSVKGRFTISRDNAKNTVYLQMNSLKPEDTSVYYCSARDWYDGFYYWGQGTQVTVSS", "polyreactivity (PSR sort gate)": "low polyreactivity"},
      {"sequence": "QVQLEESGGGLVQAGGRLRLSCAASGNTFQVYAMGWSRQASGTERELVATITSGGSTNYADSVKGRFTISRDNAKNTVYLQMNSQIPDDTAVYYCARRAVYSKRRYDYWGQGTQVTVSS", "polyreactivity (PSR sort gate)": "low polyreactivity"},
      {"sequence": "QVQLEESGGGLVQAGGRLRLSCAASGRTFGANAMGWYRQAPGKERELVATIRRGGSTYYADSVKGRFTISRDNAKNTFYLQMHSLKPEDTAVYYCATQYHSYAKEYDYWGQGTQVTVSS", "polyreactivity (PSR sort gate)": "low polyreactivity"},
      {"sequence": "QVQLEESGGGLVQAGGRLRLSCAASGSTCGTNVMGGARQAPGKERELVAAFSNGGSTNYADSVKGRFTISRDNAKITDYLQMNSLKPEDTAVYYCEFDYWGQGTQVTVSS", "polyreactivity (PSR sort gate)": "low polyreactivity"},
      {"sequence": "QVQLEESGGGLVQAGGSHRLSCAASGIIFRWYTMGWYRQAPGKERELVAAISTSTGSTYYADSVKGRFTISRDNAKNTVYLQMNSLKPEDTGVYYCAAEYAYWNYESYYWGQGTQVNVSS", "polyreactivity (PSR sort gate)": "high polyreactivity"},
      {"sequence": "QVQLEESGGGLVQAGGSHRLSCAASGSIFGPNAMGWSRQAPGKERELVAAISWTGGRTYYADSVKGRFTISRDNAYNTVYLQMNSLKPEDTAVYDCAVKGHPCGQGTQVTVSS", "polyreactivity (PSR sort gate)": "low polyreactivity"},
      {"sequence": "QVQLEESGGGLVQAGGSHRLSCPASGRTFYKNAMGWSRQAPRKERELVAAITSGGSTNYADSVKGRFSISRDNAKNSVYLQMNSLKSEDTAVYYCAAQQFPYYRSRFSYINKYDYWGQGTQVTVSS", "polyreactivity (PSR sort gate)": "high polyreactivity"},
      {"sequence": "QVQLEESGGGLVQAGGSLLLICADSGSILGGNAMGWYRHAPGKERQMVDAITFSGGGTYYADSVKGRFTLSRDNAKNTVYLQMNSLKPEDTAVYYCAADKDGYTYEFDYWGQGTQVTVSS", "polyreactivity (PSR sort gate)": "low polyreactivity"},
      {"sequence": "QVQLEESGGGLVQAGGSLRISCAASGFTFSHNAMGWYRQAPGKERELVAAISKGGSSTYYADSVKGRFTISRDNAKNTVYLQMNSLKPEDTAVYYCARPSPHKGYDYWGQGTQVTVSS", "polyreactivity (PSR sort gate)": "high polyreactivity"},
      {"sequence": "QVQLEESGGGLVQAGGSLRISCAASGITFDDYDMGWYRQAPGKERELVAAITWSGGSTYYADSVKGRFTSSRDNAKNTVYLQMNSLKPEVTAVSYCNAGSTWAYSYPVGKSDLDYWGQGTQVTVSS", "polyreactivity (PSR sort gate)": "low polyreactivity"},
      {"sequence": "QVQLEESGGGLVQAGGSLRISCAASGSIFPSYAMGWYRQAPGKERELVAAISSRGGSTYYADSVKGRFTISRDNAKNSVYLQMNSLKPEDTAVYYCNAVAGGVYVDKGYDYWGQGTQVTVSS", "polyreactivity (PSR sort gate)": "high polyreactivity"},
      {"sequence": "QVQLEESGGGLVQAGGSLRISCAASGSTYYNYAMGWYRQAPGKERELVAAISRSGITYYADSVKGRFTISRDNAKNTVYLQMNSLKPEDTAVYYCAAGRRFDQSMYYWGQGTQVTVSS", "polyreactivity (PSR sort gate)": "high polyreactivity"},
      {"sequence": "QVQLEESGGGLVQAGGSLRLICAASGGIFRYYAMGWSRQAPGKERELVAAITQSGARTYYADSVKGRFTISRDNAKNTVYLQMNSMKPEDTAVYYCAADRTGSRYNSWGQGTQVTVSS", "polyreactivity (PSR sort gate)": "high polyreactivity"},
      {"sequence": "QVQLEESGGGLVQAGGSLRLSCAASGFIFPHYAMGWYLQAPGKERELVAAISKSGDSTYYADSVKGRFTISRDNAKNTVYLQMNSLKPEDTAVYYCARRGRSLRWKYDYWGQGTQVTVSS", "polyreactivity (PSR sort gate)": "low polyreactivity"},
      {"sequence": "QVQLEESGGGLVQAGGSLRLSCAASGFIFSSNAMGWYRQAPGKESQLVARITRSDGSTYYADSVKGRFTISRDSAKNTVYLQMNSLKPEDTAFDYCAKGRDATHYEYYLYSMDYWGQGTQVTVSS", "polyreactivity (PSR sort gate)": "low polyreactivity"},
      {"sequence": "QVQLEESGGGLVQAGGSLRLSCAASGFISIPYAMGWYRQAPGKERELVASITRSGGNTYYADSVKGRFTISRDNAKNTVYLQMNSLKPEDTAVYYCNVVVYRWSPVSKLDYWGQGTQVTVSS", "polyreactivity (PSR sort gate)": "high polyreactivity"},
      {"sequence": "QVQLEESGGGLVQAGGSLRLSCAASGFITSHYAMGWYIQAPGKERELVATISSGGSTYADSVKGRFTISRDNAKNTVYLQMNSLKPEDTAVYYCNVRLQGTYRAGVRGDYWGQVTQVTVSS", "polyreactivity (PSR sort gate)": "high polyreactivity"},
      {"sequence": "QVQLEESGGGLVQAGGSLRLSCAASGFNFDVYAMGWYRQAPGKERELVAAISRSGGSTYYADSVKGRFTISRDNAKNTFYLQMNSLKPEDTAVYYCATDLLNNVDYDYWGQGTQVTVSS", "polyreactivity (PSR sort gate)": "low polyreactivity"},
      {"sequence": "QVQLEESGGGLVQAGGSLRLSCAASGFNFFRNTMGGYRQAPGKERELVAGIRYSGGSTYYADSVKGRFTISRDNAKNTVYLQMNSLKPEDTAVYYCAARSHRRLMYYWGQGTQVTVSS", "polyreactivity (PSR sort gate)": "high polyreactivity"},
      {"sequence": "QVQLEESGGGLVQAGGSLRLSCAASGFNFRKNVMGWYRPAPGKERELVAAISAPGGSTYYAHSVKGRFTISRDNGKNTGYLQMYCLKPEDPAVYFCKTDGYLYQYDYWGQGTQVTVSS", "polyreactivity (PSR sort gate)": "high polyreactivity"},
      {"sequence": "QVQLEESGGGLVQAGGSLRLSCAASGFNFWVYAMGWYRQAPGKERELVAAISYNGGRTYYADSVKGRFTISRDNAKNTVYLQMNSLKPEDTAVYYCASLPAPTGRGDYWGQGTQVTVSS", "polyreactivity (PSR sort gate)": "high polyreactivity"},
      {"sequence": "QVQLEESGGGLVQAGGSLRLSCAASGFTFNYYTMGWYTQAPGKERELVATISTRGGSTYYADSVKGRFTISRDNAKNSVYLQMNSLKPEDTAVYYCNVGQKSVSSAYDYWGQGTEVTVSS", "polyreactivity (PSR sort gate)": "high polyreactivity"},
      {"sequence": "QVQLEESGGGLVQAGGSLRLSCAASGFTFRRYAMGWYRQAPGKERELVAVITTAGYTNYADSVKGRFTISRDNAKNSVYLQMNSLKPEDTAVYYCATDNGTRKRRYDYWGQGTQVTVSS", "polyreactivity (PSR sort gate)": "low polyreactivity"},
      {"sequence": "QVQLEESGGGLVQAGGSLRLSCAASGFTFTRNAMGWYRQAPGKERELVAAISRGGSTNYADSVQGRFRISSDNAKNTVYLQMNSLKPEDTAVYYCAKVRTRATPGVDYYYWGQGTQVTVSS", "polyreactivity (PSR sort gate)": "high polyreactivity"},
      {"sequence": "QVQLEESGGGLVQAGGSLRLSCAASGFTFTTNAMGWYRQAPGKERELVAAISFSGGTTYYADSVKGRFTISRDNAKNTVYLQMNSLKPEDTAVYYCAAQPGQAWWSTDHDDYWGQGTQVSVSS", "polyreactivity (PSR sort gate)": "low polyreactivity"},
      {"sequence": "QVQLEESGGGLVQAGGSLRLSCAASGFTFVDYLMGWYRQAPGKERELVAAITRSGGSTYYADSVKGRFTISRDQAKNTVYLEMNSLKPEDTAVYYCAAEIRDYAKSYSFYWGQGTQVTVSS", "polyreactivity (PSR sort gate)": "high polyreactivity"},
      {"sequence": "QVQLEESGGGLVQAGGSLRLSCAASGFTFYLYTMGWYRQAPGKERELVAAISRSGDRTYYADSVKGRFSISRDNAKNTVYLQMNSLKPEDTAVYYCAARSYRPTRGDYWGQGTQVTVSS", "polyreactivity (PSR sort gate)": "high polyreactivity"},
      {"sequence": "QVQLEESGGGLVQAGGSLRLSCAASGFTFYSYAKGCSRQAPGKERELVAAISWSGSRTYYADSVKGRFTISRDNAKNTVYLQMNSLKPEDTAVYVCNKYLPRHRYDFDYWGQGTQVTVSS", "polyreactivity (PSR sort gate)": "high polyreactivity"},
      {"sequence": "QVQLEESGGGLVQAGGSLRLSCAASGFTIGVYAMGWYRQAPGKERELVAAISARGGSTYYADSVKGRFTISRDNAKKTVYLQMNSLKPEDTAVFYCAVVLKYVSADQMDYWGQGTQVTVSS", "polyreactivity (PSR sort gate)": "high polyreactivity"},
      {"sequence": "QVQLEESGGGLVQAGGSLRLSCAASGGIFDYNSMGWYRQAPGKERELVAAISSGASTTYADSVKGRFTISRDNAKNTVYLQMNSLKPEATAVYYCAAYWKSRYLSGLEYYSWGQGTQVTVSS", "polyreactivity (PSR sort gate)": "low polyreactivity"},
      {"sequence": "QVQLEESGGGLVQAGGSLRLSCAASGGIFYGYAMGWNRQAPGIERELVAAISDSGGSTYYADSVKGRFTISRDNAKNTVFLQLNSLNPEDTAVYYCATDARVGGYVSEGDFWGQGTQVTVSW", "polyreactivity (PSR sort gate)": "low polyreactivity"},
      {"sequence": "QVQLEESGGGLVQAGGSLRLSCAASGGTFDHYTMGWYRQAPGKERELVAAISRRSGRTYYADSVKGRFTISRDKAKNTVYLQMNSLKPEDTAVYYCNADGYTRAFDYWGQGTQVTVSS", "polyreactivity (PSR sort gate)": "high polyreactivity"},
      {"sequence": "QVQLEESGGGLVQAGGSLRLSCAASGIIFATYAMGWYTQAPGKDRELVAAISSGGRTYYADSVKGRFTISRDNAKNTVYFQMNSLKPEDTAVYYCAAKSGGRSSLYNYWGQGTQVTVSS", "polyreactivity (PSR sort gate)": "high polyreactivity"},
      {"sequence": "QVQLEESGGGLVQAGGSLRLSCAASGIIFSPYAMGWYIQAPWKERELVAAINFSTGRTYYADSVKGRFTISRDNAKNTVYLQMNSLKPEDTAVYYCAAGKYPYVFRGGYDYWGQGTQVTVSS", "polyreactivity (PSR sort gate)": "low polyreactivity"},
      {"sequence": "QVQLEESGGGLVQAGGSLRLSCAASGIIFYRSVMGWYRQAPGKERELVAAITGGGSTYYADSVKGRFTISRDNAKNTVYLQMNSLKPEDTAVYYCNADIRAYTVLTGGYIYDYWGQVTQVTVSS", "polyreactivity (PSR sort gate)": "high polyreactivity"},
      {"sequence": "QVQLEESGGGLVQAGGSLRLSCAASGITFAHYAMGWSRQAPGKDRELVAAISQSGGSTYYADSVKGRFTISRDNAKNTVYLQMNSLKPEDTAVYYCNKYRYPQDDYWGQGTQVTVSS", "polyreactivity (PSR sort gate)": "high polyreactivity"},
      {"sequence": "QVQLEESGGGLVQAGGSLRLSCAASGITFNQYVMGWYRQAPGKEMELVAAISRSGATTYYADSVKGRFTISRDNAKNTVYLQMNSLKPEDTAVYYCAVRGSVSYTRYGYWGQGTQVTVSS", "polyreactivity (PSR sort gate)": "high polyreactivity"}
    ]}
  ]
}
